Tests used:
native gel or EMSA = molecular target: the molecule itself; test: native gel or EMSA
[1] = molecular target: the molecule itself; test: spinning disk fluorescence microscopy of septin polymerisation
[2] = molecular target: the molecule itself; test: negative-stain electron microscopy of septin polymerisation

Protein | binding result (native gel or EMSA) | binding result [1] | binding result [2]
human SEPT9_i3 with a TEV-cleavable C-terminal Strep-tag-II (natural protein) MERDRISALKRSFEVEEVETPNSTPPRRVQTPLLRATVASSTQKFQDLGVKNSEPSARHVDSLSQRSPKASLRRVELSGPKAAEPVSRRTELSIDISSKQVENAGAIGPSRFGLKRAEVLGHKTPEPAPRRTEITIVKPQESAHRRMEPPASKVPEVPTAPATDAAPKRVEIQMPKPAEAPTAPSPAQTLENSEPAPVSQLQSRLEPKPQPPVAEATPRSQEATEAAPSCVGDMADTPRDAGLKQAPASRNEKAPVDFGYVGIDSILEQMRRKAMKQGFEFNIMVVGQSGLGKSTLINTLFKSKISRKSVQPTSEERIPKTIEIKSITHDIEEKGVRMKLTVIDTPGFGDHINNENCWQPIMKFINDQYEKYLQEEVNINRKKRIPDTRVHCCLYFIPATGHSLRPLDIEFMKRLSKVVNIVPVIAKADTLTLEERVHFKQRITADLLSNGIDVYPQKEFDEDSEDRLVNEKFREMIPFAVVGSDHEYQVNGKRILGRKTKWGTIEVENTTHCEFAYLRDLLIRTHMQNIKDITSSIHFEAYRVKRLNEGSSAMANGVEEKEPEAPEM | binds |  | 
human SEPT9_i1 with a TEV-cleavable C-terminal Strep-tag-II (natural protein) MKKSYSGGTRTSSGRLRRLGDSSGPALKRSFEVEEVETPNSTPPRRVQTPLLRATVASSTQKFQDLGVKNSEPSARHVDSLSQRSPKASLRRVELSGPKAAEPVSRRTELSIDISSKQVENAGAIGPSRFGLKRAEVLGHKTPEPAPRRTEITIVKPQESAHRRMEPPASKVPEVPTAPATDAAPKRVEIQMPKPAEAPTAPSPAQTLENSEPAPVSQLQSRLEPKPQPPVAEATPRSQEATEAAPSCVGDMADTPRDAGLKQAPASRNEKAPVDFGYVGIDSILEQMRRKAMKQGFEFNIMVVGQSGLGKSTLINTLFKSKISRKSVQPTSEERIPKTIEIKSITHDIEEKGVRMKLTVIDTPGFGDHINNENCWQPIMKFINDQYEKYLQEEVNINRKKRIPDTRVHCCLYFIPATGHSLRPLDIEFMKRLSKVVNIVPVIAKADTLTLEERVHFKQRITADLLSNGIDVYPQKEFDEDSEDRLVNEKFREMIPFAVVGSDHEYQVNGKRILGRKTKWGTIEVENTTHCEFAYLRDLLIRTHMQNIKDITSSIHFEAYRVKRLNEGSSAMANGVEEKEPEAPEM | binds |  | 
SEPT2-msfGFP human septin hexamers (complex) chain 1: MSKQQPTQFINPETPGYVGFANLPNQVHRKSVKKGFEFTLMVVGESGLGKSTLINSLFLTDLYPERVIPGAAEKIERTVQIEASTVEIEERGVKLRLTVVDTPGYGDAINCRDCFKTIISYIDEQFERYLHDESGLNRRHIIDNRVHCCFYFISPFGHGLKPLDVAFMKAIHNKVNIVPVIAKADTLTLKERERLKKRILDEIEEHNIKIYHLPDAESDEDEDFKEQTRLLKASIPFSVVGSNQLIEAKGKKVRGRLYPWGVVEVENPEHNDFLKLRTMLITHMQDLQEVTQDLHYENFRSERLKRGGRKVENEDMNKDQILLEKEAELRRMQEMIARMQAQMQMQMQGGDGDGGALGHHV chain 2: MAATDIARQVGEGCRTVPLAGHVGFDSLPDQLVNKSVSQGFCFNILCVGETGLGKSTLMDTLFNTKFEGEPATHTQPGVQLQSNTYDLQESNVRLKLTIVSTVGFGDQINKEDSYKPIVEFIDAQFEAYLQEELKIRRVLHTYHDSRIHVCLYFIAPTGHSLKSLDLVTMKKLDSKVNIIPIIAKADAISKSELTKFKIKITSELVSNGVQIYQFPTDDESVAEINGTMNAHLPFAVIGSTEELKIGNKMMRARQYPWGTVQVENEAHCDFVKLREMLIRVNMEDLREQTHTRHYELYRRCKLEEMGFKDTDPDSKPFSLQETYEAKRNEFLGELQKKEEEMRQMFVQRVKEKEAELKEAEKELHEKFDRLKKLHQDEKKKLEDKKKSLDDEVNAFKQRKTAAELLQSQGSQAGGSQTLKRDKEKKN chain 3: MSVSARSAAAEERSVNSSTMVAQQKNLEGYVGFANLPNQVYRKSVKRGFEFTLMVVGESGLGKSTLINSLFLTDLYSPEYPGPSHRIKKTVQVEQSKVLIKEGGVQLLLTIVDTPGFGDAVDNSNCWQPVIDYIDSKFEDYLNAESRVNRRQMPDNRVQCCLYFIAPSGHGLKPLDIEFMKRLHEKVNIIPLIAKADTLTPEECQQFKKQIMKEIQEHKIKIYEFPETDDEEENKLVKKIKDRLPLAVVGSNTIIEVNGKRVRGRQYPWGVAEVENGEHCDFTILRNMLIRTHMQDLKDVTNNVHYENYRSRKLAAVTYNGVDNNKNKGQLTKSPLAQMEEERREHVAKMKKMEMEMEQVFEMKVKEKVQKLKDSEAELQRRHEQMKKNLEAQHKELEEKRRQFEDEKANWEAQQRILEQQNSSRTLEKNKKKGKIF |  | binds | binds

Source: article doi:10.1101/2021.01.21.427698 (bioRxiv, 2021)
